Reference: the supplement of paper PMC11246515
± gives the standard deviation of the averaged measurements.

Assay: total protein half-life in vivo (active degradation + dilution); higher = more stable protein
[1] = E. coli NCM3722 delta-clpP delta-lon delta-hslV, growth: N-lim chemostat, doubling time 6 h
[2] = E. coli NCM3722 delta-clpP, growth: N-lim chemostat, doubling time 6 h
[3] = E. coli NCM3722 delta-hslV, growth: N-lim chemostat, doubling time 6 h
[4] = E. coli NCM3722 delta-lon, growth: N-lim chemostat, doubling time 6 h
[5] = E. coli NCM3722 delta-smpB, growth: N-lim chemostat, doubling time 6 h
[6] = wild type E. coli NCM3722, growth: C-lim chemostat, doubling time 3 h
[7] = wild type E. coli NCM3722, growth: C-lim chemostat, doubling time 6 h
[8] = wild type E. coli NCM3722, growth: C-lim chemostat, doubling time 12 h
[9] = wild type E. coli NCM3722, growth: N-lim chemostat, doubling time 6 h
[10] = wild type E. coli NCM3722, growth: N-lim chemostat, doubling time 12 h
[11] = wild type E. coli NCM3722, growth: P-lim chemostat, doubling time 6 h
[12] = wild type E. coli NCM3722, growth: P-lim chemostat, doubling time 12 h

Sequence	total protein half-life in vivo [1]	total protein half-life in vivo [2]	total protein half-life in vivo [3]	total protein half-life in vivo [4]	total protein half-life in vivo [5]	total protein half-life in vivo [6]	total protein half-life in vivo [7]	total protein half-life in vivo [8]	total protein half-life in vivo [9]	total protein half-life in vivo [10]	total protein half-life in vivo [11]	total protein half-life in vivo [12]
MNEQSQAKSPEALRAMVAGTLANFQHPTLKHNLTTLKALHHVAWMDDTLHVELVMPFVWHSAFEELKEQCSAELLRITGAKAIDWKLSHNIATLKRVKNQPGINGVKNIIAVSSGKGGVGKSSTAVNLALALAAEGAKVGILDADIYGPSIPTMLGAENQRPTSPDGTHMAPIMSHGLATNSIGYLVTDDNAMVWRGPMASKALMQMLQETLWPDLDYLVLDMPPGTGDIQLTLAQNIPVTGAVVVTTPQDIALIDAKKGIVMFEKVEVPVLGIVENMSVHICSNCGHHEPIFGTGGAEKLAEKYHTQLLGQMPLHISLREDLDKGTPTVISRPESEFTAIYRQLADRVAAQLYWQGEVIPGEISFRAV [P0AF08]	5.1 ± 1 h	4.454 ± 0.02 h	3.96 ± 0.12 h	4.15 ± 0.34 h	3.876 ± 0.013 h	2.87 ± 0.2 h	5.22 ± 0.23 h	9.46 ± 1.4 h	3.71 ± 0.21 h	5.9098 ± 0.00063 h	5.19 ± 0.43 h	9.96 ± 0.64 h
MNFLAHLHLAHLAESSLSGNLLADFVRGNPEESFPPDVVAGIHMHRRIDVLTDNLPEVREAREWFRSETRRVAPITLDVMWDHFLSRHWSQLSPDFPLQEFVCYAREQVMTILPDSPPRFINLNNYLWSEQWLVRYRDMDFIQNVLNGMASRRPRLDALRDSWYDLDAHYDALETRFWQFYPRMMAQASRKAL	5.09 ± 0.57 h	2 ± 0.55 h	2.32 h	3.5 ± 0.25 h	3.83 h	2.18 h	4.23 h	6.12 h	3.3 h	4.2 h	3.04 ± 0.068 h	3.73 ± 1.6 h
MNFPLIANIVVFVVLLFALAQTRHKQWSLAKKVLVGLVMGVVFGLALHTIYGSDSQVLKDSVQWFNIVGNGYVQLLQMIVMPLVFASILSAVARLHNASQLGKISFLTIGTLLFTTLIAALVGVLVTNLFGLTAEGLVQGGAETARLNAIESNYVGKVSDLSVPQLVLSFIPKNPFADLTGANPTSIISVVIFAAFLGVAALKLLKDDAPKGERVLAAIDTLQSWVMKLVRLVMQLTPYGVLALMTKVVAGSNLQDIIKLGSFVVASYLGLLIMFAVHGILLGINGVSPLKYFRKVWPVLTFAFTSRSSAASIPLNVEAQTRRLGVPESIASFAASFGATIGQNGCAGLYPAMLAVMVAPTVGINPLDPMWIATLVGIVTVSSAGVAGVGGGATFAALIVLPAMGLPVTLVALLISVEPLIDMGRTALNVSGSMTAGTLTSQWLKQTDKAILDSEDDAELAHH	5.42 ± 0.17 h	4.76 ± 0.058 h	5.07 ± 0.26 h	5 ± 0.65 h	5.38 ± 0.78 h	3.35 ± 0.46 h	6.36 ± 1.8 h	11.4 ± 2 h	4.95 ± 1.1 h	8.91 ± 0.48 h	5.29 ± 0.62 h	7.43 ± 0.75 h
MNGKLQSSDVKNETPYNIPLLINENVISSGISLISLWHTYADEHYRVIWPRDKKKPLIANSWVAVYTVQGCGKILLKNGEQITLHGNCIIFLKPMDIHSYHCEGLVWEQYWMEFTPTSMMDIPVGQQSVIYNGEIYNQELTEVAELITSPEAIKNNLAVAFLTKIIYQWICLMYADGKKDPQRRQIEKLIATLHASLQQRWSVADMAATIPCSEAWLRRLFLRYTGKTPKEYYLDARLDLALSLLKQQGNSVGEVADTLNFFDSFHFSKAFKHKFGYAPSAVLKNTDQHPTDASPHN	5.49 ± 0.17 h	–	–	–	1.33 ± 0.21 h	–	–	–	–	–	–	–
MNGTIYQRIEDNAHFRELVEKRQRFATILSIIMLAVYIGFILLIAFAPGWLGTPLNPNTSVTRGIPIGVGVIVISFVLTGIYIWRANGEFDRLNNEVLHEVQAS [P0AF54]	–	–	–	–	–	–	5.84 ± 0.1 h	8.72 ± 0.83 h	–	–	–	–
MNHSLKPWNTFGIDHNAQHIVCAEDEQQLLNAWQYATAEGQPVLILGEGSNVLFLEDYRGTVIINRIKGIEIHDEPDAWYLHVGAGENWHRLVKYTLQEGMPGLENLALIPGCVGSSPIQNIGAYGVELQRVCAYVDSVELATGKQVRLTAKECRFGYRDSIFKHEYQDRFAIVAVGLRLPKEWQPVLTYGDLTRLDPTTVTPQQVFNAVCHMRTTKLPDPKVNGNAGSFFKNPVVSAETAKALLSQFPTAPNYPQADGSVKLAAGWLIDQCQLKGMQIGGAAVHRQQALVLINEDNAKSEDVVQLAHHVRQKVGEKFNVWLEPEVRFIGASGEVSAVETIS	4.93 ± 1.3 h	3.45 ± 0.048 h	3.8 ± 0.13 h	3.89 ± 0.49 h	3.52 ± 0.22 h	2.93 ± 0.053 h	4.83 ± 0.63 h	9.87 ± 0.28 h	3.66 ± 0.11 h	5.41 ± 0.096 h	4.81 ± 0.36 h	8.99 ± 0.82 h
MNIENLKTKAEADISEYITKKIIELKKKTGKEVTSIQFTAREKMTGLESYDVKINLI	6.69 ± 0.78 h	6.7 ± 1.3 h	5.74 ± 0.34 h	6.46 ± 0.88 h	5.57 ± 0.3 h	3.24 ± 0.47 h	5.85 ± 0.45 h	10.6 ± 1.6 h	5.71 ± 0.32 h	13.6 ± 3.4 h	5.4 ± 0.96 h	–
MNIKGKALLAGCIALAFSNMALAEDIKVAVVGAMSGPVAQYGDQEFTGAEQAVADINAKGGIKGNKLQIVKYDDACDPKQAVAVANKVVNDGIKYVIGHLCSSSTQPASDIYEDEGILMITPAATAPELTARGYQLILRTTGLDSDQGPTAAKYILEKVKPQRIAIVHDKQQYGEGLARAVQDGLKKGNANVVFFDGITAGEKDFSTLVARLKKENIDFVYYGGYHPEMGQILRQARAAGLKTQFMGPEGVANVSLSNIAGESAEGLLVTKPKNYDQVPANKPIVDAIKAKKQDPSGAFVWTTYAALQSLQAGLNQSDDPAEIAKYLKANSVDTVMGPLTWDEKGDLKGFEFGVFDWHANGTATDAK [P0AD96]	6.22 ± 0.16 h	5.81 ± 0.64 h	6.127 ± 0.057 h	6.35 ± 0.39 h	5.96 ± 0.19 h	3.27 ± 0.18 h	6.24 ± 0.17 h	11.46 ± 0.034 h	6.02 ± 0.32 h	12.23 ± 0.02 h	5.67 ± 0.064 h	13 ± 0.45 h
MNIKIAALTLAIASGISAQWAIAADMPASPAPTIPVKQYVTQVNADNSVTFRYFAPGAKNVSVVVGVPVPDNIHPMTKDEAGVWSWRTPILKGNLYEYFFNVDGVRSIDTGTAMTNPQRQVNSSMILVPGSYLDTRSVAHGDLIAITYHSNALQSERQMYVWTPPGYTGMGEPLPVLYFYHGFGDTGRSAIDQGRIPQIMDNLLAEGKIKPMLVVIPDTETDAKGIIPEDFVPQERRKVFYPLNAKAADRELMNDIIPLISKRFNVRKDADGRALAGLSQGGYQALVSGMNHLESFGWLATFSGVTTTTVPDEGVAARLNDPAAINQQLRNFTVVVGDKDVVTGKDIAGLKTELEQKKINFDYQEYPGLNHEMDVWRPAYAAFVQKLFK	4.45 h	–	–	–	3.45 ± 0.76 h	–	–	–	–	–	–	–
MNIPQLTALCLRYHGVLLDASEEVVHVAVVDAPSHELLDALHFATTKRIEITCWTRQQMEGHASRTQQTLPVAVQEKHQPKAELLTRTLQSALEQRASDIHIEPADNAYRIRLRIDGVLHPLPDVSPDAGVALTARLKVLGNLDIAEHRLPQDGQFTVELAGNAVSFRIATLPCRGGEKVVLRLLQQVGQALDVNTLGMQPLQLADFAHALQQPQGLVLVTGPTGSGKTVTLYSALQKLNTADINICSVEDPVEIPIAGLNQTQIHPRAGLTFQGVLRALLRQDPDVIMIGEIRDGETAEIAIKAAQTGHLVLSTLHTNSTCETLVRLQQMGVARWMLSSALTLVIAQRLVRKLCPHCRRQQGEPIHIPDNVWPSPLPHWQAPGCVHCYHGFYGRTALFEVLPITPVIRQLISANTDVESLETHARQAGMRTLFENGCLAVEQGLTTFEELIRVLGMPHGE	3.89 h	–	–	–	–	–	–	–	–	–	–	–
MNIRDLEYLVALAEHRHFRRAADSCHVSQPTLSGQIRKLEDELGVMLLERTSRKVLFTQAGMLLVDQARTVLREVKVLKEMASQQGETMSGPLHIGLIPTVGPYLLPHIIPMLHQTFPKLEMYLHEAQTHQLLAQLDSGKLDCVILALVKESEAFIEVPLFDEPMLLAIYEDHPWANRECVPMADLAGEKLLMLEDGHCLRDQAMGFCFEAGADEDTHFRATSLETLRNMVAAGSGITLLPALAVPPERKRDGVVYLPCIKPEPRRTIGLVYRPGSPLRSRYEQLAEAIRARMDGHFDKVLKQAV [P0ACQ4]	6.42 ± 0.14 h	6.57 ± 1.4 h	4.79 ± 0.37 h	4.56 ± 0.12 h	4.11 ± 0.24 h	2.62 ± 0.37 h	5.1 ± 0.76 h	9.67 ± 2.1 h	4.51 ± 0.26 h	10.4 ± 2.9 h	4.768 ± 0.012 h	9.98 ± 0.13 h
